The target in this data set is Progesterone receptor isoform B (PRB) (Homo sapiens, UniProt P06401 1-933). Put plainly: EMSA.
Progesterone receptor isoform B (PRB), sequence (P06401 whole entry, canonical isoform): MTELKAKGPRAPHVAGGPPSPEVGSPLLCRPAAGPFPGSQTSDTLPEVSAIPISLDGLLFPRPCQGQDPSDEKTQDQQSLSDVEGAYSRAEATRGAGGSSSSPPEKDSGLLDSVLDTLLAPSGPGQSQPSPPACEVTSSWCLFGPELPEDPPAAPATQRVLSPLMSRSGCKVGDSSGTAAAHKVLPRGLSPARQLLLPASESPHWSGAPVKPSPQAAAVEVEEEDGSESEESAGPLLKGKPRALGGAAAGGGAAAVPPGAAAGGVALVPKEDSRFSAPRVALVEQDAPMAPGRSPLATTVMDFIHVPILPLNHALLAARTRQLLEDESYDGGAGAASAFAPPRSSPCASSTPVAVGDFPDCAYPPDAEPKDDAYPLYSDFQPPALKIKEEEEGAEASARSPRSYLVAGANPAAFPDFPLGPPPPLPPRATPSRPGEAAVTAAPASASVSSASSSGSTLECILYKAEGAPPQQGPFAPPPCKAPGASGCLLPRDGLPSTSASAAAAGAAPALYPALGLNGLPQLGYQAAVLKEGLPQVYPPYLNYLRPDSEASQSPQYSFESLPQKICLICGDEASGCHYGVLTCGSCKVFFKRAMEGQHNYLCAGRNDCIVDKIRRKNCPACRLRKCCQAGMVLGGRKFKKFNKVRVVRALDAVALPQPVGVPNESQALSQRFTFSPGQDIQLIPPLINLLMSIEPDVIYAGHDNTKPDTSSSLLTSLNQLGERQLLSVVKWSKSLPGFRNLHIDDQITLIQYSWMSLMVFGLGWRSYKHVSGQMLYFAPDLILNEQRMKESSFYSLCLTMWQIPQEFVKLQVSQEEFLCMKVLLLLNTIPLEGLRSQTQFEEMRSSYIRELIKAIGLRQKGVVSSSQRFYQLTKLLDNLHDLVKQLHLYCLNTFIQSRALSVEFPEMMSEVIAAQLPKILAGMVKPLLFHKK

B1: PRE (dsDNA)
DNA 1: GTTACAAACTGTTCT
DNA 2: AGAACAGTTTGTAAC
In the case of B1, the binding result is recorded as “binds”.

The values above are taken from PMC1635300.
